To fix the notation:
B1: KB_A12_cMET_E11 (scFv, V domains shown)
VH: EVQLVESGGGLVRPGGSLRLSCAASGFTFSSYAMSWVRQAPGKGLEWVSAISGSGGSTYYADSVKGRFTISRDNTKNSLYLQMTSLRADDTAFYYCVKDFGPGYGTGWFDYWGPGTLVTVSS
VL: AVNWYQQLPGKAPKLLIYAAGRCAKKSGTGRCKQDSDCLAGCVCGPNGFCGANSGVSDRFSAAKSGTSASLAINGLRSEDEADYYCAAWDDSLNGYVFGTGTKLTVLG
B2: KB_A12_cMET_F10 (scFv, V domains shown)
VH: EVQLVESGGGLVRPGGSLRLSCAASGFTFSSYAMSWVRQAPGKGLEWVSAISGSGGSTYYADSVKGRFTISRDNTKNSLYLQMTSLRADDTAFYYCVKDFGPGYGTGWFDYWGPGTLVTVSS
VL: AVNWYQQLPGKAPKLLIYAAGRCRSLMSGTGRCKQDSDCLAGCVCGPNGFCGANSGVSDRFSAAKSGTSASLAINGLRSEDEADYYCAAWDDSLNGYVFGTGTKLTVLG
B3: KB_A12_cMET_G06 (scFv, V domains shown)
VH: EVQLVESGGGLVRPGGSLRLSCAASGFTFSSYAMSWVRQAPGKGLEWVSAISGSGGSTYYADSVKGRFTISRDNTKNSLYLQMTSLRADDTAFYYCVKDFGPGYGTGWFDYWGPGTLVTVSS
VL: AVNWYQQLPGKAPKLLIYAAGRCNKSGGTGRCKQDSDCLAGCVCGPNGFCGANSGVSDRFSAAKSGTSASLAINGLRSEDEADYYCAAWDDSLNGYVFGTGTKLTVLG
B4: KB_A12_cMET_E04 (scFv, V domains shown)
VH: EVQLVESGGGLVRPGGSLRLSCAASGFTFSSYAMSWVRQAPGKGLEWVSAISGSGGSTYYADSVKGRFTISRDNTKNSLYLQMTSLRADDTAFYYCVKDFGPGYGTGWFDYWGPGTLVTVSS
VL: AVNWYQQLPGKAPKLLIYAAGRCGHLSGTGRCKQDSDCLAGCVCGPNGFCGANSGVSDRFSAAKSGTSASLAINGLRSEDEADYYCAAWDDSLNGYVFGTGTKLTVLG
B5: KB_A12_cMET_G01 (scFv, V domains shown)
VH: EVQLVESGGGLVRPGGSLRLSCAASGFTFSSYAMSWVRQAPGKGLEWVSAISGSGGSTYYADSVKGRFTISRDNTKNSLYLQMTSLRADDTAFYYCVKDFGPGYGTGWFDYWGPGTLVTVSS
VL: AVNWYQQLPGKAPKLLIYAAGRCQRQSGTGRCKQDSDCLAGCVCGPNGFCGANSGVSDRFSAAKSGTSASLAINGLRSEDEADYYCAAWDDSLNGYVFGTGTKLTVLG
B6: KB_A12_cMET_E12 (scFv, V domains shown)
VH: EVQLVESGGGLVRPGGSLRLSCAASGFTFSSYAMSWVRQAPGKGLEWVSAISGSGGSTYYADSVKGRFTISRDNTKNSLYLQMTSLRADDTAFYYCVKDFGPGYGTGWFDYWGPGTLVTVSS
VL: AVNWYQQLPGKAPKLLIYAAGRCAKRSGTGRCKQDSDCLAGCVCGPNGFCGANSGVSDRFSAAKSGTSASLAINGLRSEDEADYYCAAWDDSLNGYVFGTGTKLTVLG
B7: KB_A12_cMET_H02 (scFv, V domains shown)
VH: EVQLVESGGGLVRPGGSLRLSCAASGFTFSSYAMSWVRQAPGKGLEWVSAISGSGGSTYYADSVKGRFTISRDNTKNSLYLQMTSLRADDTAFYYCVKDFGPGYGTGWFDYWGPGTLVTVSS
VL: AVNWYQQLPGKAPKLLIYAAGRCAKRTGTGRCKQDSDCLAGCVCGPNGFCGANSGVSDRFSAAKSGTSASLAINGLRSEDEADYYCAAWDDSLNGYVFGTGTKLTVLG
B8: KB_A12_cMET_F02 (scFv, V domains shown)
VH: EVQLVESGGGLVRPGGSLRLSCAASGFTFSSYAMSWVRQAPGKGLEWVSAISGSGGSTYYADSVKGRFTISRDNTKNSLYLQMTSLRADDTAFYYCVKDFGPGYGTGWFDYWGPGTLVTVSS
VL: AVNWYQQLPGKAPKLLIYAAGRCGRASGTGRCKQDSDCLAGCVCGPNGFCGANSGVSDRFSAAKSGTSASLAINGLRSEDEADYYCAAWDDSLNGYVFGTGTKLTVLG
B9: KB_A12_cMET_H04 (scFv, V domains shown)
VH: EVQLVESGGGLVRPGGSLRLSCAASGFTFSSYAMSWVRQAPGKGLEWVSAISGSGGSTYYADSVKGRFTISRDNTKNSLYLQMTSLRADDTAFYYCVKDFGPGYGTGWFDYWGPGTLVTVSS
VL: AVNWYQQLPGKAPKLLIYAAGRCPQMTGTGRCKQDSDCLAGCVCGPNGFCGANSGVSDRFSAAKSGTSASLAINGLRSEDEADYYCAAWDDSLNGYVFGTGTKLTVLG
B10: KB_A12_cMET_H05 (scFv, V domains shown)
VH: EVQLVESGGGLVRPGGSLRLSCAASGFTFSSYAMSWVRQAPGKGLEWVSAISGSGGSTYYADSVKGRFTISRDNTKNSLYLQMTSLRADDTAFYYCVKDFGPGYGTGWFDYWGPGTLVTVSS
VL: AVNWYQQLPGKAPKLLIYAAGRCNRASGAGRCKQDSDCLAGCVCGPNGFCGANSGVSDRFSAAKSGTSASLAINGLRSEDEADYYCAAWDDSLNGYVFGTGTKLTVLG
B11: KB_A12_cMET_H03 (scFv, V domains shown)
VH: EVQLVESGGGLVRPGGSLRLSCAASGFTFSSYAMSWVRQAPGKGLEWVSAISGSGGSTYYADSVKGRFTISRDNTKNSLYLQMTSLRADDTAFYYCVKDFGPGYGTGWFDYWGPGTLVTVSS
VL: AVNWYQQLPGKAPKLLIYAAGRCRGMTGVGRCKQDSDCLAGCVCGPNGFCGANSGVSDRFSAAKSGTSASLAINGLRSEDEADYYCAAWDDSLNGYVFGTGTKLTVLG
B12: KB_A12_cMET_E05 (scFv, V domains shown)
VH: EVQLVESGGGLVRPGGSLRLSCAASGFTFSSYAMSWVRQAPGKGLEWVSAISGSGGSTYYADSVKGRFTISRDNTKNSLYLQMTSLRADDTAFYYCVKDFGPGYGTGWFDYWGPGTLVTVSS
VL: AVNWYQQLPGKAPKLLIYAAGRCDRKAGTGRCKQDSDCLAGCVCGPNGFCGANSGVSDRFSAAKSGTSASLAINGLRSEDEADYYCAAWDDSLNGYVFGTGTKLTVLG
B13: KB_A12_cMET_E01 (scFv, V domains shown)
VH: EVQLVESGGGLVRPGGSLRLSCAASGFTFSSYAMSWVRQAPGKGLEWVSAISGSGGSTYYADSVKGRFTISRDNTKNSLYLQMTSLRADDTAFYYCVKDFGPGYGTGWFDYWGPGTLVTVSS
VL: AVNWYQQLPGKAPKLLIYAAGRCNLTSGTGRCKQDSDCLAGCVCGPNGFCGANSGVSDRFSAAKSGTSASLAINGLRSEDEADYYCAAWDDSLNGYVFGTGTKLTVLG
B14: KB_A12_cMET_F06 (scFv, V domains shown)
VH: EVQLVESGGGLVRPGGSLRLSCAASGFTFSSYAMSWVRQAPGKGLEWVSAISGSGGSTYYADSVKGRFTISRDNTKNSLYLQMTSLRADDTAFYYCVKDFGPGYGTGWFDYWGPGTLVTVSS
VL: AVNWYQQLPGKAPKLLIYAAGRCPHQTGTGRCKQDSDCLAGCVCGPNGFCGANSGVSDRFSAAKSGTSASLAINGLRSEDEADYYCAAWDDSLNGYVFGTGTKLTVLG
B15: KB_A12_cMET_E02 (scFv, V domains shown)
VH: EVQLVESGGGLVRPGGSLRLSCAASGFTFSSYAMSWVRQAPGKGLEWVSAISGSGGSTYYADSVKGRFTISRDNTKNSLYLQMTSLRADDTAFYYCVKDFGPGYGTGWFDYWGPGTLVTVSS
VL: AVNWYQQLPGKAPKLLIYAAGRCRKKSGANRCKQDSDCLAGCVCGPNGFCGANSGVSDRFSAAKSGTSASLAINGLRSEDEADYYCAAWDDSLNGYVFGTGTKLTVLG
B16: KB_A12_cMET_G10 (scFv, V domains shown)
VH: EVQLVESGGGLVRPGGSLRLSCAASGFTFSSYAMSWVRQAPGKGLEWVSAISGSGGSTYYADSVKGRFTISRDNTKNSLYLQMTSLRADDTAFYYCVKDFGPGYGTGWFDYWGPGTLVTVSS
VL: AVNWYQQLPGKAPKLLIYAAGRCEKHSGTGRCKQDSDCLAGCVCGPNGFCGANSGVSDRFSAAKSGTSASLAINGLRSEDEADYYCAAWDDSLNGYVFGTGTKLTVLG
B17: KB_A12_cMET_H01 (scFv, V domains shown)
VH: EVQLVESGGGLVRPGGSLRLSCAASGFTFSSYAMSWVRQAPGKGLEWVSAISGSGGSTYYADSVKGRFTISRDNTKNSLYLQMTSLRADDTAFYYCVKDFGPGYGTGWFDYWGPGTLVTVSS
VL: AVNWYQQLPGKAPKLLIYAAGRCHRMSGTGRCKQDSDCLAGCVCGPNGFCGANSGVSDRFSAAKSGTSASLAINGLRSEDEADYYCAAWDDSLNGYVFGTGTKLTVLG
B18: KB_A12_cMET_E07 (scFv, V domains shown)
VH: EVQLVESGGGLVRPGGSLRLSCAASGFTFSSYAMSWVRQAPGKGLEWVSAISGSGGSTYYADSVKGRFTISRDNTKNSLYLQMTSLRADDTAFYYCVKDFGPGYGTGWFDYWGPGTLVTVSS
VL: AVNWYQQLPGKAPKLLIYAAGRCPKRHTGTGRCKQDSDCLAGCVCGPNGFCGANSGVSDRFSAAKSGTSASLAINGLRSEDEADYYCAAWDDSLNGYVFGTGTKLTVLG
B19: KB_A12_cMET_F12 (scFv, V domains shown)
VH: EVQLVESGGGLVRPGGSLRLSCAASGFTFSSYAMSWVRQAPGKGLEWVSAISGSGGSTYYADSVKGRFTISRDNTKNSLYLQMTSLRADDTAFYYCVKDFGPGYGTGWFDYWGPGTLVTVSS
VL: AVNWYQQLPGKAPKLLIYAAGRCKAQSGSGRCKQDSDCLAGCVCGPNGFCGANSGVSDRFSAAKSGTSASLAINGLRSEDEADYYCAAWDDSLNGYVFGTGTKLTVLG
B20: KB_A12_cMET_G08 (scFv, V domains shown)
VH: EVQLVESGGGLVRPGGSLRLSCAASGFTFSSYAMSWVRQAPGKGLEWVSAISGSGGSTYYADSVKGRFTISRDNTKNSLYLQMTSLRADDTAFYYCVKDFGPGYGTGWFDYWGPGTLVTVSS
VL: AVNWYQQLPGKAPKLLIYAAGRCARLSGSGRCKQDSDCLAGCVCGPNGFCGANSGVSDRFSAAKSGTSASLAINGLRSEDEADYYCAAWDDSLNGYVFGTGTKLTVLG
B21: KB_A12_cMET_G07 (scFv, V domains shown)
VH: EVQLVESGGGLVRPGGSLRLSCAASGFTFSSYAMSWVRQAPGKGLEWVSAISGSGGSTYYADSVKGRFTISRDNTKNSLYLQMTSLRADDTAFYYCVKDFGPGYGTGWFDYWGPGTLVTVSS
VL: AVNWYQQLPGKAPKLLIYAAGRCRASSGTGRCKQDSDCLAGCVCGPNGFCGANSGVSDRFSAAKSGTSASLAINGLRSEDEADYYCAAWDDSLNGYVFGTGTKLTVLG

The target of the assay is human cMET (human, UniProt P08581 25-932). Nature of the assay: phage TRF on cMET.
Chain of human cMET (P08581 25-932 limits assumed): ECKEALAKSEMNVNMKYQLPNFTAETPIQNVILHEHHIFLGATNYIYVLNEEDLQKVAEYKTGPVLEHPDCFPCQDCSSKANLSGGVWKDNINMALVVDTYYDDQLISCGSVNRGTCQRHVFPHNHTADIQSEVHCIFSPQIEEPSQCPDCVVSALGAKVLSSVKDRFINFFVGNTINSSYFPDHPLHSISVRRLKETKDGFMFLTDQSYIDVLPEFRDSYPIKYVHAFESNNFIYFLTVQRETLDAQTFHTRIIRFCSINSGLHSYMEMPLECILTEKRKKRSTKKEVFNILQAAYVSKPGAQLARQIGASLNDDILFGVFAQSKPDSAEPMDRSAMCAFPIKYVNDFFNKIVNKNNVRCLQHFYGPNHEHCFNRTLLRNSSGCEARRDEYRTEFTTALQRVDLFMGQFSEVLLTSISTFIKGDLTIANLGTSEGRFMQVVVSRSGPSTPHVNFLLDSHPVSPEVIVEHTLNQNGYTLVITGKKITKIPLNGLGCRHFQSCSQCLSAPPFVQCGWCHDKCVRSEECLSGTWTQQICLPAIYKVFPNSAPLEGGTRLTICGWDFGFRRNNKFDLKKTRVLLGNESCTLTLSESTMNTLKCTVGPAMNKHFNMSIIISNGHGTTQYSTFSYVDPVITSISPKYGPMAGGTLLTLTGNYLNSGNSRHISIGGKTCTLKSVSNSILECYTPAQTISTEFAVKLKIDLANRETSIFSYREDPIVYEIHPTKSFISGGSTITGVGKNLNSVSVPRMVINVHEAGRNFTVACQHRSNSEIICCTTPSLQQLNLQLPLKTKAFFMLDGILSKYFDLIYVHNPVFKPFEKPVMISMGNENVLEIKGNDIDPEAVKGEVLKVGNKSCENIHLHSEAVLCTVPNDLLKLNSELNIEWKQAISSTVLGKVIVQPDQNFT
Regarding B1, the TRF signal was 158000.

On to B2, for which the TRF signal stood at 51300. In turn, B3 gave a TRF signal of 62100. With B4 the figure was 41300; with B5, 98900. Take B6: the TRF signal was found to be 95900. B7 yielded a TRF signal of 35400.

In turn, B8 showed a TRF signal of 98500. On to B9, for which the TRF signal turned out to be 113000. Turning to B10, the TRF signal was 153000.

Take B11: the TRF signal was 54200. With B12 the figure was 116000; with B13, 22400. In the case of B14 it was 56200; in that of B15, 9480.

Take B16: the TRF signal came to 64800. The molecule B17 displayed a TRF signal of 132000.

B18 returned a TRF signal of 95300. In turn, B19 showed a TRF signal of 119000. With B20 the figure was 27900. In turn, B21 showed a TRF signal of 58000.

For the origin of these results see US20230331827A1 (MAXION THERAPEUTICS, published 2023).
